This is an account of results in patent US12545899B2, “Luciferase enzymes for use with thermostable luciferins in bioluminescent assays” (Promega Corporation, priority 2018, dated 2026).

Series [1] is described as follows: Effect of V300G, L305F, S306P on activity with CS0333 (FIG. 13). To be noted: 1 mM ATP; 100 nM to 1 mM substrate; Bright-Glo buffer. Format: biochemical. On the procedure:
FIG. 13 includes a representative graph of the effects of amino acid substitutions V300G, L305F, and S306P on enzyme activity with the CS0333 analog. Reagent compositions included […]+1 mM ATP+100 nM to 1 mM substrate in Bright-Glo™ buffer.

The nature of series [2]: Inhibition of luciferase enzyme variants by dehydro-F-luciferin. To be noted: for inhibition by dehydro-F-luciferin relative to Ppe variant (SEQ ID NO: 1): Detection reagent buffer or Bright-Glo buffer (FIGS. 20, 21); for resistance to inhibition by dehydro F-luciferin: 1 μM F-luciferin, 1 mM ATP (FIG. 26). It counts as biochemical. On the procedure:
Reagent compositions include 0.022 μM-366.97 μM Dehydro F-luciferin titration, 1 mM ATP, 1 μM F-luciferin, and 0.005 mg/ml enzyme. […] Both amino acid substitutions L305F and S306P conferred improved resistance to the inhibitor individually and in combination.

Series [3] is described as follows: Kinetic analysis of ATG-3707, ATG-4117 with CS0333. Format: biochemical. As for the experimental part:
(§1) Kinetic tests of these luciferase enzyme variants were also conducted. […] Reagent compositions included 0.005 mg/ml luciferase enzyme variant+1 mM ATP, and 0.1 fM to 1 mM substrate in Bright-Glo™ (BG) or Detection Reagent (DR) buffers. The composition was incubated for 3 mins and read on GloMax® Multi+platform.
(§2) Table 8 below includes representative results of kinetic analysis of the thermostable luciferase variants of Ppe (SEQ ID NO: 1), ATG-3707, and ATG-4117. The Ppe variant (SEQ ID NO: 1) was tested with D/L-luciferin, and ATG-3707, and ATG-4117 were tested with CS0280 and CS0333.

The nature of series [4]: Kinetic analysis of ATG-3707, ATG-4117 with CS0280. Format: biochemical. On the procedure: as §1, §2
Series [5] is described as follows: Brightness of additional luciferase enzyme variants with CS0333. Format: biochemical. The settings on record: Table 7A, 1 mM CS0333. The method in brief: (§3)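 Each variant at 0.005 mg/ml combined with 1 mM ATP plus 1 mM substrate in Bright-Glo or Detection Reagent buffer; luminescence recorded as relative brightness.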
Series [6] can be described thus: Kinetic analysis of Ppe variant, ATG-3707, ATG-4117 with D/L-luciferin. Format: biochemical. As for the experimental part: as §1, §2
Series [7] in a line: Differential scanning fluorimetry (DSF) analysis. Format: physicochemical. Details: key to DSF Tm: melting temperature in °C (heated 30-95 °C at 1 °C/min). To be noted: Table 7A. The method in brief:
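Enzymes mixed with Sypro Orange at 5× final, heated 30–95° C at 1° C per minute with fluorescence read every 60 s. Storage buffer 50 mM HEPES pH 7.5, 100 mM NaCl, 2 mM EDTA, or for luciferase variants 20 mM HEPES pH 7.5, 200 mM NaCl, 1 mM EDTA; per-minute fluorescence change plotted against temperature.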
On the technique in general: DSF heats the sample and reads unfolding from a dye or from intrinsic fluorescence.

The nature of series [8]: Brightness of additional luciferase enzyme variants with CS0280. Format: biochemical. To be noted: Table 7A, 1 mM CS0280. Summed up:
as §3

B1: ATG-3549: SEQ ID NO: 14; H244W+T344A+I396K+V300G (protein)
chain: MADKNILYGPEPFYPLEDGTAGEQMFDALSRYAAIPGCIALTNAHTKENVLYEEFLKLSCRLAESFKKYGLKQNDTIAVCSENSLQFFLPVIASLYLGIIVAPVNDKYIERELIHSLGIVKPRIVFCSKNTFQKVLNVKSKLKSIETIIILDLNEDLGGYQCLNNFISQNSDSNLDVKKFKPYSFNRDDQVASIMFSSGTTGLPKGVMLTHKNIVARFSIAKDPTFGNAINPTSAILTVIPFHWGFGMMTTLGYFTCGFRVVLMHTFEEKLFLQSLQDYKVESTLLVPTLMAFLAKSALGEKYDLSHLKEIASGGAPLSKEIGEMVKKRFKLNFVRQGYGLTEATSAVLITPKGDAKPGSTGKIVPLHAVKVVDPTTGKILGPNEPGELYFKGPMKMKGYYNNEEATKAIIDNDGWLRSGDIAYYDNDGHFYIVDRLKSLIKYKGYQVAPAEIEGILLQHPYIVDAGVTGIPDEAAGELPAAGVVVQTGKYLNEQIVQDYVASQVSTAKWLRGGVKFLDEIPKGSTGKIDRKVLRQMLEKHTNGHHHHHHHH
With B1, the “activity with CS0333 relative to Ppe variant (SEQ ID NO: 1)” value in series [1] was “improved activity”.

B2: ATG-2625: SEQ ID NO: 4; N74N+H244R+V300G+I396K (protein)
chain: MADKNILYGPEPFYPLEDGTAGEQMFDALSRYAAIPGCIALTNAHTKENVLYEEFLKLSCRLAESFKKYGLKQNDTIAVCSENSLQFFLPVIASLYLGIIVAPVNDKYIERELIHSLGIVKPRIVFCSKNTFQKVLNVKSKLKSIETIIILDLNEDLGGYQCLNNFISQNSDSNLDVKKFKPYSFNRDDQVASIMFSSGTTGLPKGVMLTHKNIVARFSIAKDPTFGNAINPTSAILTVIPFHRGFGMMTTLGYFTCGFRVVLMHTFEEKLFLQSLQDYKVESTLLVPTLMAFLAKSALGEKYDLSHLKEIASGGAPLSKEIGEMVKKRFKLNFVRQGYGLTETTSAVLITPKGDAKPGSTGKIVPLHAVKVVDPTTGKILGPNEPGELYFKGPMKMKGYYNNEEATKAIIDNDGWLRSGDIAYYDNDGHFYIVDRLKSLIKYKGYQVAPAEIEGILLQHPYIVDAGVTGIPDEAAGELPAAGVVVQTGKYLNEQIVQDYVASQVSTAKWLRGGVKFLDEIPKGSTGKIDRKVLRQMLEKHTNGHHHHHHHH
As for B2, in series [2], the “inhibition by dehydro-F-luciferin relative to Ppe variant (SEQ ID NO: 1)” value was “inhibited by dehydro-F-luciferin, but less so”.

B3: ATG-3551: SEQ ID NO: 16; H244W+T344A+I396K+V300G+S306P (protein)
chain: MADKNILYGPEPFYPLEDGTAGEQMFDALSRYAAIPGCIALTNAHTKENVLYEEFLKLSCRLAESFKKYGLKQNDTIAVCSENSLQFFLPVIASLYLGIIVAPVNDKYIERELIHSLGIVKPRIVFCSKNTFQKVLNVKSKLKSIETIIILDLNEDLGGYQCLNNFISQNSDSNLDVKKFKPYSFNRDDQVASIMFSSGTTGLPKGVMLTHKNIVARFSIAKDPTFGNAINPTSAILTVIPFHWGFGMMTTLGYFTCGFRVVLMHTFEEKLFLQSLQDYKVESTLLVPTLMAFLAKSALGEKYDLPHLKEIASGGAPLSKEIGEMVKKRFKLNFVRQGYGLTEATSAVLITPKGDAKPGSTGKIVPLHAVKVVDPTTGKILGPNEPGELYFKGPMKMKGYYNNEEATKAIIDNDGWLRSGDIAYYDNDGHFYIVDRLKSLIKYKGYQVAPAEIEGILLQHPYIVDAGVTGIPDEAAGELPAAGVVVQTGKYLNEQIVQDYVASQVSTAKWLRGGVKFLDEIPKGSTGKIDRKVLRQMLEKHTNGHHHHHHHH
With B3, the “activity with CS0333 relative to Ppe variant (SEQ ID NO: 1)” value in series [1] was “improved activity”. Besides, in series [2], the “resistance to inhibition by dehydro F-luciferin” value is recorded as “conferred resistance to inhibition by dehydro F-luciferin”.

B4: ATG-3550: SEQ ID NO: 15; H244W+T344A+I396K+V300G+L305F (protein)
chain: MADKNILYGPEPFYPLEDGTAGEQMFDALSRYAAIPGCIALTNAHTKENVLYEEFLKLSCRLAESFKKYGLKQNDTIAVCSENSLQFFLPVIASLYLGIIVAPVNDKYIERELIHSLGIVKPRIVFCSKNTFQKVLNVKSKLKSIETIIILDLNEDLGGYQCLNNFISQNSDSNLDVKKFKPYSFNRDDQVASIMFSSGTTGLPKGVMLTHKNIVARFSIAKDPTFGNAINPTSAILTVIPFHWGFGMMTTLGYFTCGFRVVLMHTFEEKLFLQSLQDYKVESTLLVPTLMAFLAKSALGEKYDFSHLKEIASGGAPLSKEIGEMVKKRFKLNFVRQGYGLTEATSAVLITPKGDAKPGSTGKIVPLHAVKVVDPTTGKILGPNEPGELYFKGPMKMKGYYNNEEATKAIIDNDGWLRSGDIAYYDNDGHFYIVDRLKSLIKYKGYQVAPAEIEGILLQHPYIVDAGVTGIPDEAAGELPAAGVVVQTGKYLNEQIVQDYVASQVSTAKWLRGGVKFLDEIPKGSTGKIDRKVLRQMLEKHTNGHHHHHHHH
As to B4, the “activity with CS0333 relative to Ppe variant (SEQ ID NO: 1)” value in series [1] was “highest activity”. The “resistance to inhibition by dehydro F-luciferin” value in series [2] is given as “conferred resistance to inhibition by dehydro F-luciferin”.

B5: ATG-2624: SEQ ID NO: 3; I240L+Y254S+T344A+I396K (protein)
chain: MADKNILYGPEPFYPLEDGTAGEQMFDALSRYAAIPGCIALTNAHTKENVLYEEFLKLSCRLAESFKKYGLKQNDTIAVCSENSLQFFLPVIASLYLGIIVAPVNDKYIERELIHSLGIVKPRIVFCSKNTFQKVLNVKSKLKSIETIIILDLNEDLGGYQCLNNFISQNSDSNLDVKKFKPYSFNRDDQVASIMFSSGTTGLPKGVMLTHKNIVARFSIAKDPTFGNAINPTSAILTVLPFHHGFGMMTTLGSFTCGFRVVLMHTFEEKLFLQSLQDYKVESTLLVPTLMAFLAKSALVEKYDLSHLKEIASGGAPLSKEIGEMVKKRFKLNFVRQGYGLTEATSAVLITPKGDAKPGSTGKIVPLHAVKVVDPTTGKILGPNEPGELYFKGPMKMKGYYNNEEATKAIIDNDGWLRSGDIAYYDNDGHFYIVDRLKSLIKYKGYQVAPAEIEGILLQHPYIVDAGVTGIPDEAAGELPAAGVVVQTGKYLNEQIVQDYVASQVSTAKWLRGGVKFLDEIPKGSTGKIDRKVLRQMLEKHTNGHHHHHHHH
For B5, in series [2], the “inhibition by dehydro-F-luciferin relative to Ppe variant (SEQ ID NO: 1)” value is reported as “inhibited by dehydro-F-luciferin, but less so”.

B6: C7573H3: SEQ ID NO: 70; H244W+T344A+I396K+S193A+N228D+L305F+S306P+I109V+A316W (protein)
chain: MADKNILYGPEPFYPLEDGTAGEQMFDALSRYAAIPGCIALTNAHTKENVLYEEFLKLSCRLAESFKKYGLKQNDTIAVCSENSLQFFLPVIASLYLGIIVAPVNDKYIERELIHSLGIVKPRIVFCSKNTFQKVLNVKSKLKSIETIIILDLNEDLGGYQCLNNFISQNSDSNLDVKKFKPYSFNRDDQVASIMFSSGTTGLPKGVMLTHKNIVARFSIAKDPTFGNAINPTSAILTVIPFHWGFGMMTTLGYFTCGFRVVLMHTFEEKLFLQSLQDYKVESTLLVPTLMAFLAKSALVEKYDFSHLKEIASGGAPLSKEIGEMVKKRFKLNFVRQGYGLTETTSAVLITPKGDAKPGSTGKIVPLHAVKVVDPTTGKILGPNEPGELYFKGPMIMKGYYNNEEATKAIIDNDGWLRSGDIAYYDNDGHFYIVDRLKSLIKYKGYQVAPAEIEGILLQHPYIVDAGVTGIPDEAAGELPAAGVVVQTGKYLNEQIVQDYVASQVSTAKWLRGGVKFLDEIPKGSTGKIDRKVLRQMLEKHTNGHHHHHHHH
The Km is the substrate concentration at which the rate is half of its maximum. Turning to B6, the Michaelis-Menten constant (Km) was 12.4 µM in series [3] (BrightGlo); 758 µM in series [3] (Detection Reagent); 13 µM in series [4] (BrightGlo); 419 µM in series [4] (Detection Reagent); 0.0702 µM in series [6] (BrightGlo); 2.65 µM in series [6] (Detection Reagent). Also, the “Vmax (RLU)” value in series [3] (BrightGlo) is recorded as 1,601,921 RLU; in series [3] (Detection Reagent), 124,964 RLU; in series [4] (BrightGlo) it was 7,188,109 RLU; in series [4] (Detection Reagent), 7,879,793 RLU; in series [6] (BrightGlo), 719,605 RLU; in series [6] (Detection Reagent) it was 817,287 RLU. Further, in series [5] (Bright-Glo buffer), the “Fold-improvement over ATG3707, CS0333 BG” value was 4.35. The “Fold-improvement over ATG3707, CS0333 DR” value in series [5] (Detection Reagent buffer) came out at 3.36. The “DSF Tm” value in series [7] was 61. The “Fold-improvement over ATG3707, CS0280 BG” value in series [8] (Bright-Glo buffer) was 6.04. The “Fold-improvement over ATG3707, CS0280 DR” value in series [8] (Detection Reagent buffer) is 7.48.
